These are literature values, as cited in paper PMC7054563.

The series deals with Glu150 (UniProt position 150, LMANVELIAPL).

Consider “Multidrug transporter MdfA, triple mutant E26T/D34M/A150E (Escherichia coli; E26T;D34M;A150E)”, for which the pKa (commonly the negative logarithm of the acid dissociation constant) is 6.5.
